In US6355472B2, “Method for producing nucleoside-5′-phosphate ester” (Ajinomoto Co., Inc., priority 1996, dated 2002):

Key:
[1] = Properties of the purified acid phosphatase; format: biochemical; conditions: for Temperature stability (stable up to): treatment at pH 7.0 for 30 minutes
Description: The transphosphorylation activity was measured under the following condition using inosine as the substrate. The reaction was performed at pH 5.0 at 30° C. for 10 minutes in a reaction solution (1 ml) containing 40 μmol/ml of inosine, 100 μmol/ml of sodium pyrophosphate, 100 μmol/ml of sodium acetate buffer (pH 5.0), and an enzyme. The reaction was stopped by adding 200 μl of 2 N hydrochloric acid. After that, precipitates were removed by centrifugation. Then, 5′-inosinic acid produced by the transphosphorylation reaction was quantitatively measured. The amount of enzyme to produce 1 μmol of 5′-inosinic acid per 1 minute under this standard reaction condition was defined as 1 unit.
The phosphomonoesterase activity was measured under the following condition using 5′-inosinic acid as a substrate. The reaction was performed at 30° C. for 10 minutes in a reaction solution (1 ml) containing 10 μmol/ml of 5′-inosinic acid, 100 μmol/ml of MES/NaOH buffer (pH 6.0), and an enzyme. The reaction was stopped by adding 200 μl of 2 N hydrochloric acid. After that, precipitates were removed by centrifugation. Then, inosine produced by the hydrolytic reaction was quantitatively measured. An amount of enzyme to produce 1 μmol of inosine per 1 minute under this standard reaction condition was defined as 1 unit.

[2] = 5′-inosinic acid production by purified enzyme sample at various pH; format: biochemical; conditions: enzyme 50 units/dl, pH 4.0, 30° C., 3 hours
Description: Sodium pyrophosphate (10 g/dl) and inosine (2 g/dl) were dissolved in sodium acetate buffers each having pH of 5.5, 5.0, 4.5, 4.0, and 3.5, to which the enzyme sample described above was added so that a concentration of 50 units/dl was obtained. The reaction mixture was incubated at 30° C. for 6 hours while maintaining each pH, and the amount of produced 5′-inosinic acid was measured along with passage of time. Produced inosinic acid contained only 5′-inosinic acid. Production of 2′-inosinic acid and 3′-inosinic acid by-products was not observed at all. The velocity of 5′-inosinic acid production was maximum at pH 5.0. However, the maximum accumulated amount of 5′-inosinic acid was higher at lower pH. The reaction condition at pH 4.0 was most efficient for production of 5′-inosinic acid, in which 5′-inosinic acid was produced and accumulated in an amount of 2.60 g/dl by performing the reaction for 3 hours.
Sodium pyrophosphate (15 g/dl) and inosine (3 g/dl) were dissolved in sodium acetate buffers each having pH of 5.5, 5.0, 4.5, 4.0, and 3.5, to which the enzyme sample described above was added so that a concentration of 50 units/dl was obtained. The reaction mixture was incubated at 30° C. for 6 hours while maintaining each pH, and the amount of produced 5′-inosinic acid was measured along with passage of time. Produced inosinic acid contained only 5′-inosinic acid. […]

[3] = phosphate ester hydrolytic reaction

B1: Acid Phosphatase Derived from Morganella morganii: enzyme purified from cell-free extract of Morganella morganii NCIMB 10466 (SEQ ID NO: 4) (protein)
chain: AIPAGNDATTKPDLYYLKNEQAIDSLKLLPPPPEVGSIQFLNDQAMYEKGRMLRNTERGKQAQADADLAAGGVATAFSGAFGYPITEKDSPELYKLLTNMIEDAGDLATRSAKEHYMRIRPFAFYGTETCNTKDQKKLSTNGSYPSGHTSIGWATALVLAEVNPANQDAILERGYQLGQSRVICGYHWQSDVDAARIVGSAAVATLHSDPAFQAQLAKAKQEFAQKSQK
[1]
  Optimum temperature: about 35 °C
  phosphate ester hydrolytic activity (phosphomonoesterase activity) higher than the transphosphorylation activity: not less than 20 times
  Temperature stability (stable up to): up to 30 °C
[1]; [3]
  Optimum pH: 6.5
[1]; transphosphorylation reaction
  Optimum pH: 5.2
[2]; sodium pyrophosphate 10 g/dl, inosine 2 g/dl
  5′-inosinic acid produced and accumulated: 2.60 g/dL

B2: Acid Phosphatase Derived from Escherichia blattae: enzyme purified from cell-free extract of Escherichia blattae JCM 1650 (SEQ ID NO: 8) (protein)
chain: LALVATGNDTTTKPDLYYLKNSEAINSLALLPPPPAVGSIAFLNDQAMYEQGRLLRNTERGKLAAEDANLSSGGVANAFSGAFGSPITEKDAPALHKLLTNMIEDAGDLATRSAKDHYMRIRPFAFYGVSTCNTTEQDKLSKNGSYPSGHTSIGWATALVLAEINPQRQNEILKRGYELGQSRVICGYHWQSDVDAARVVGSAVVATLHTNPAFQQQLQKAKAEFAQHQKK
[1]
  Optimum temperature: about 35 °C
  phosphate ester hydrolytic activity (phosphomonoesterase activity) higher than the transphosphorylation activity: not less than 30 times
  Temperature stability (stable up to): up to 40 °C
[1]; [3]
  Optimum pH: 6.5
[1]; transphosphorylation reaction
  Optimum pH: 5.2
[2]; sodium pyrophosphate 15 g/dl, inosine 3 g/dl
  5′-inosinic acid produced and accumulated: 1.56 g/dL
